Where a chain is given by its changes, count along the chain named. In names and notes the source's numbering stands. Several values for one entry are separate records, joined by “and”; a condition that tells them apart may be missing. Identical values can stand only once.
T1: lys-plasminogen, P00747
T1 chain: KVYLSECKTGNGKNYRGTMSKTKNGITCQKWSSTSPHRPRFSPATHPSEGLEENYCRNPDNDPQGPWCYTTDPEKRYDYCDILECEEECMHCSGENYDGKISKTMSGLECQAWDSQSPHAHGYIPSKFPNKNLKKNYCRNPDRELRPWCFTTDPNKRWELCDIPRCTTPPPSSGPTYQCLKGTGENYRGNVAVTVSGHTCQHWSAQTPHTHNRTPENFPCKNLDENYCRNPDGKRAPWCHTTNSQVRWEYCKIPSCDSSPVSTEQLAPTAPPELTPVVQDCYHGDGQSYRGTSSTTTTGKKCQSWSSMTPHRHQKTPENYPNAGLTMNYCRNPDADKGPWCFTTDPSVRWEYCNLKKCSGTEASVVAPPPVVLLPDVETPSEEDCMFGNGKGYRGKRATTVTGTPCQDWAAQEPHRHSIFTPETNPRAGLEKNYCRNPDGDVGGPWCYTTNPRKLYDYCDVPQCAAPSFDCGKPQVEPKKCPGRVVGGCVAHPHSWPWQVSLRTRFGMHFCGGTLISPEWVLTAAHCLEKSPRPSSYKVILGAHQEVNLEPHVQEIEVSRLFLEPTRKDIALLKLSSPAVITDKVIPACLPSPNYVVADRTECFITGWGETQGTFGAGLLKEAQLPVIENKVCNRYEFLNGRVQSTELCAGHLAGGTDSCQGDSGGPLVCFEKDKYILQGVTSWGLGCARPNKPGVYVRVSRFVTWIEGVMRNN

B1: wild type human t-PA, two-chain form (protein)
chain 1: SYQVICRDEKTQMIYQQHQSWLRPVLRSNRVEYCWCNSGRAQCHSVPVKSCSEPRCFNGGTCQQALYFSDFVCQCPEGFAGKCCEIDTRATCYEDQGISYRGTWSTAESGAECTNWNSSALAQKPYSGRRPDAIRLGLGNHNYCRNPDRDSKPWCYVFKAGKYSSEFCSTPACSEGNSDCYFGNGSAYRGTHSLTESGASCLPWNSMILIGKVYTAQNPSAQALGLGKHNYCRNPDGDAKPWCHVLKNRRLTWEYCDVPSCSTCGLRQYSQPQFR
chain 2: IKGGLFADIASHPWQAAIFAKHRRSPGERFLCGGILISSCWILSAAHCFQERFPPHHLTVILGRTYRVVPGEEEQKFEVEKYIVHKEFDDDTYDNDIALLQLKSDSSRCAQESSVVRTVCLPPADLQLPDWTECELSGYGKHEALSPFYSERLKEAHVRLYPSSRCTSQHLLNRTVTDNMLCAGDTRSGGPQANLHDACQGDSGGPLVCLNDGRMTLVGIISWGLGCGQKDVPGVYTKVTNYLDWIRDNMRP
B2: t-PA/K429Y, two-chain form (protein)
chain 1: B1 chain 1
chain 2: B1 chain 2 with K154Y
B3: t-PA/H417E, two-chain form (protein)
chain 1: B1 chain 1
chain 2: B1 chain 2 with H142E
B4: t-PA/H417D, two-chain form (protein)
chain 1: B1 chain 1
chain 2: B1 chain 2 with H142D
B5: t-PA/R275E, single-chain form (protein)
chain: SYQVICRDEKTQMIYQQHQSWLRPVLRSNRVEYCWCNSGRAQCHSVPVKSCSEPRCFNGGTCQQALYFSDFVCQCPEGFAGKCCEIDTRATCYEDQGISYRGTWSTAESGAECTNWNSSALAQKPYSGRRPDAIRLGLGNHNYCRNPDRDSKPWCYVFKAGKYSSEFCSTPACSEGNSDCYFGNGSAYRGTHSLTESGASCLPWNSMILIGKVYTAQNPSAQALGLGKHNYCRNPDGDAKPWCHVLKNRRLTWEYCDVPSCSTCGLRQYSQPQFEIKGGLFADIASHPWQAAIFAKHRRSPGERFLCGGILISSCWILSAAHCFQERFPPHHLTVILGRTYRVVPGEEEQKFEVEKYIVHKEFDDDTYDNDIALLQLKSDSSRCAQESSVVRTVCLPPADLQLPDWTECELSGYGKHEALSPFYSERLKEAHVRLYPSSRCTSQHLLNRTVTDNMLCAGDTRSGGPQANLHDACQGDSGGPLVCLNDGRMTLVGIISWGLGCGQKDVPGVYTKVTNYLDWIRDNMRP
B6: t-PA/R275E,H417E, single-chain form (protein)
chain: B5 chain with H417E
B7: t-PA/R275E,H417D, single-chain form (protein)
chain: B5 chain with H417D

Target: T1, lys-plasminogen, P00747

**Q.** With B1 as the protein, how does the Kcat of plasminogen activation in the absence of a cofactor read?
**A.** 0.093 s⁻¹ and 0.16 s⁻¹

**Q.** And the Kcat of plasminogen activation in the presence of fibrin?
**A.** 0.11 s⁻¹ and 0.08 s⁻¹

**Q.** And the Kcat/Km of plasminogen activation in the absence of a cofactor?
**A.** 14000 M⁻¹ s⁻¹ and 16000 M⁻¹ s⁻¹

**Q.** And the Kcat/Km of plasminogen activation in the presence of fibrin?
**A.** 6.5e+06 M⁻¹ s⁻¹ and 4e+06 M⁻¹ s⁻¹

**Q.** And the Km of plasminogen activation in the absence of a cofactor?
**A.** 6.7 µM and 10 µM

**Q.** And the Km of plasminogen activation in the presence of fibrin?
**A.** 0.017 µM and 0.02 µM

**Q.** With B2 as the protein, how does the Kcat of plasminogen activation in the absence of a cofactor read?
**A.** 0.18 s⁻¹

**Q.** And the Kcat of plasminogen activation in the presence of fibrin?
**A.** 0.08 s⁻¹

**Q.** What about the Kcat/Km of plasminogen activation in the absence of a cofactor of the same protein?
**A.** 13000 M⁻¹ s⁻¹

**Q.** What about the Kcat/Km of plasminogen activation in the presence of fibrin of the same protein?
**A.** 3e+06 M⁻¹ s⁻¹

**Q.** What about the Km of plasminogen activation in the absence of a cofactor of the same protein?
**A.** 14 µM

**Q.** And the Km of plasminogen activation in the presence of fibrin?
**A.** 0.03 µM

**Q.** What about the “fold difference of activity toward plasminogen without co-factor, against two-chain t-PA” value of the same protein?
**A.** differed by a factor of only 1.2

**Q.** What about the “percent of the activity of two-chain t-PA toward plasminogen in the presence of fibrin” value of the same protein?
**A.** approximately 75% of the activity of two-chain t-PA

**Q.** B3 was tested. Which Kcat of plasminogen activation in the absence of a cofactor did it give?
**A.** 0.099 s⁻¹

**Q.** And the Kcat of plasminogen activation in the presence of fibrin?
**A.** 0.1 s⁻¹

**Q.** And the Kcat/Km of plasminogen activation in the absence of a cofactor?
**A.** 11000 M⁻¹ s⁻¹

**Q.** And the Kcat/Km of plasminogen activation in the presence of fibrin?
**A.** 4.5e+06 M⁻¹ s⁻¹

**Q.** What about the Km of plasminogen activation in the absence of a cofactor of the same protein?
**A.** 8.7 µM

**Q.** And the Km of plasminogen activation in the presence of fibrin?
**A.** 0.022 µM

**Q.** How did the Kcat of plasminogen activation in the absence of a cofactor turn out when B4 was run?
**A.** 0.11 s⁻¹

**Q.** And the Kcat of plasminogen activation in the presence of fibrin?
**A.** 0.11 s⁻¹

**Q.** And the Kcat/Km of plasminogen activation in the absence of a cofactor?
**A.** 16000 M⁻¹ s⁻¹

**Q.** And the Kcat/Km of plasminogen activation in the presence of fibrin?
**A.** 4.6e+06 M⁻¹ s⁻¹

**Q.** And the Km of plasminogen activation in the absence of a cofactor?
**A.** 6.8 µM

**Q.** What about the Km of plasminogen activation in the presence of fibrin of the same protein?
**A.** 0.024 µM

**Q.** Which results are given for B5?
**A.** Kcat of plasminogen activation in the absence of a cofactor: 0.014 s⁻¹ and 0.038 s⁻¹; Kcat of plasminogen activation in the presence of fibrin: 0.16 s⁻¹ and 0.1 s⁻¹; Kcat/Km of plasminogen activation in the absence of a cofactor: 1500 M⁻¹ s⁻¹ and 1300 M⁻¹ s⁻¹; Kcat/Km of plasminogen activation in the presence of fibrin: 9.4e+06 M⁻¹ s⁻¹ and 5e+06 M⁻¹ s⁻¹; Km of plasminogen activation in the presence of fibrin: 0.017 µM and 0.02 µM

**Q.** How did the Kcat of plasminogen activation in the absence of a cofactor turn out when B6 was run?
**A.** 0.002 s⁻¹

**Q.** And the Kcat of plasminogen activation in the presence of fibrin?
**A.** 0.17 s⁻¹

**Q.** What about the Kcat/Km of plasminogen activation in the absence of a cofactor of the same protein?
**A.** 240 M⁻¹ s⁻¹

**Q.** And the Kcat/Km of plasminogen activation in the presence of fibrin?
**A.** 6.1e+06 M⁻¹ s⁻¹

**Q.** What about the Km of plasminogen activation in the absence of a cofactor of the same protein?
**A.** 8.5 µM

**Q.** What about the Km of plasminogen activation in the presence of fibrin of the same protein?
**A.** 0.028 µM

**Q.** And the “fold reduction of activity toward plasminogen without co-factor, against single chain t-PA/R275E” value?
**A.** reduced by a factor of approximately 14 or 6, respectively

**Q.** Which results are given for B7?
**A.** Kcat of plasminogen activation in the absence of a cofactor: 0.001 s⁻¹; Kcat of plasminogen activation in the presence of fibrin: 0.23 s⁻¹; Kcat/Km of plasminogen activation in the absence of a cofactor: 110 M⁻¹ s⁻¹; Kcat/Km of plasminogen activation in the presence of fibrin: 5.3e+06 M⁻¹ s⁻¹; Km of plasminogen activation in the absence of a cofactor: 9.4 µM; Km of plasminogen activation in the presence of fibrin: 0.043 µM; fold reduction of activity toward plasminogen without co-factor, against single chain t-PA/R275E: reduced by a factor of approximately 14 or 6, respectively

The proteins below were run against stimulatory thirteen amino acid peptide P368.

**Q.** For B1, which “stimulation of plasminogen activation by co-factor (indirect chromogenic assay)” value (“stimulation of plasminogen activation” below) is on record?
**A.** strongly stimulated

**Q.** How did the “stimulation of plasminogen activation” value turn out when B2 was run?
**A.** strongly stimulated

**Q.** Which “stimulation of plasminogen activation” value does the source give for B5 here?
**A.** moderately

What follows are proteins tested against soluble fibrin monomers (DESAFIB).

**Q.** For B1, which Fold stimulation of kcat/Km by fibrin is on record?
**A.** 460 fold and 250 fold

**Q.** What about the “fibrin selectivity factor (specific activity in the presence of fibrin over that in the presence of fibrinogen)” value of the same protein?
**A.** 1.5 for two-chain t-PA

**Q.** And the “stimulation of plasminogen activation” value?
**A.** strongly stimulated

**Q.** B2 was tested. Which Fold stimulation of kcat/Km by fibrin did it give?
**A.** 230 fold

**Q.** What about the “fibrin selectivity factor (specific activity in the presence of fibrin over that in the presence of fibrinogen)” value of the same protein?
**A.** 1.5 for two-chain t-PA/K429Y

**Q.** And the “stimulation of plasminogen activation” value?
**A.** strongly stimulated

**Q.** Which Fold stimulation of kcat/Km by fibrin does the source give for B3 here?
**A.** 410 fold

**Q.** For B4, which Fold stimulation of kcat/Km by fibrin is on record?
**A.** 290 fold

**Q.** Which results are given for B5?
**A.** Fold stimulation of kcat/Km by fibrin: 6300 fold and 3800 fold; fibrin selectivity factor (specific activity in the presence of fibrin over that in the presence of fibrinogen): 1.0 for single chain t-PA/R275E; stimulation of plasminogen activation by co-factor (indirect chromogenic assay): stimulated strongly

**Q.** How did the Fold stimulation of kcat/Km by fibrin turn out when B6 was run?
**A.** 25400 fold

**Q.** How did the Fold stimulation of kcat/Km by fibrin turn out when B7 was run?
**A.** 48200 fold

The proteins below were run against fibrinogen.

**Q.** How did the “stimulation of plasminogen activation” value turn out when B1 was run?
**A.** strongly stimulated

**Q.** B2 was tested. Which “stimulation of plasminogen activation” value did it give?
**A.** strongly stimulated

**Q.** B5 was tested. Which “stimulation of plasminogen activation” value did it give?
**A.** stimulated strongly
